Experimental data as given in PMC5925748 (Molecular cancer therapeutics, 2017).

Target: sEGFR (soluble extracellular region of EGFR, wild type) (Homo sapiens, UniProt P00533)
Assay: SPR

B1: necitumumab Fab (Fab11F8) (Fab, V domains shown)
VH: QVQLQESGPGLVKPSQTLSLTCTVSGGSISSGDYYWSWIRQPPGKGLEWIGYIYYSGSTDYNPSLKSRVTMSVDTSKNQFSLKVNSVTAADTAVYYCARVSIFGVGTFDYWGQGTLVTVSS
VL: EIVMTQSPATLSLSPGERATLSCRASQSVSSYLAWYQQKPGQAPRLLIYDASNRATGIPARFSGSGSGTDFTLTISSLEPEDFAVYYCHQYGSTPLTFGGGTKAEIK
Work on B1 yielded a Kd of 6.1 nM.
